Test results from PMC3157396, “Molecular Basis for the Recognition of Adenomatous Polyposis Coli by the Discs Large 1 Protein” (PLoS ONE, 2011).
Substitutions are numbered along the chain they refer to. Names and notes keep the numbering of the source.

B1: PDZ2 domain of human Discs Large 1 (DLG1), residues 315–410 (domain or fragment, UniProt Q12959 315-410, looked up)
chain: EKIMEIKLIKGPKGLGFSIAGGVGNQHIPGDNSIYVTKIIEGGAAHKDGKLQIGDKLLAVNNVCLEEVTHEEAVTALKNTSDFVYLKVAKPTSMYM
notes: human Discs Large 1/Synapse Associated Protein 97 (DLG1), PDZ2 domain, residues 315-410; cloned into a pET28a-derived vector; also called WT PDZ2; second PDZ domain of DLG1; source: E. coli BL21 (DE3), purified (Ni2+-NTA, Superdex 200 gel filtration)
B2: GST-tagged C-terminal 11 residues of human Adenomatous Polyposis Coli (APC), residues 2833–2843 (peptide)
chain: RHSGSYLVTSV
notes: human Adenomatous Polyposis Coli (APC), C-terminal 11 residues, 2833-2843 of the 2,843-residue protein; cloned into pGEX4T1; also called GST-APC-C11; APC-C11; not shown: GST, N-terminal, kept
B3: PDZ2 domain of human DLG1 with the point mutation Q340P (domain or fragment, UniProt Q12959 315-410, looked up)
chain: B1 chain with Q26P
notes: human DLG1 PDZ2 domain, residues 315-410, Q340P; also called PDZ2 Q340P; PDZ2-Q340P; source: E. coli BL21 (DE3), purified

Assays:
[1] = molecular target: B2; assay: ITC; ITC200, 25°C, 50 mM HEPES pH 7.5, 100 mM NaCl; PDZ domain (400 µM) injected 20 times in 2 µl aliquots into 40 µM GST-tagged APC-C11 or APC-C4; single site binding model; details: both partners purified
[2] = molecular target: B3; assay: as above; details: both partners purified

| dH [1] [kcal/mol] | stoichiometry N [1] | Kd [2] [µM] | Binder |
| --- | --- | --- | --- |
| -7.09 ± 0.19 | 0.916 ± 0.018 | – | B1 |
| – | – | 9.8 ± 1.11 | B2 |
| -6.76 ± 0.27 | 1.04 ± 0.03 | – | B3 |
